Several values for one entry are separate records, joined by “and”; a condition that tells them apart may be missing. Equal values may be shown once. Where no end group is shown, it is not given here. [ ]: non-standard residue; d: D form. pS = N[C@@H](COP(=O)(O)O)C(=O)O
Experiments:
[1] = molecular target: T1, 14-3-3σ∆C mutant Clu3 (core of the chimeras) (human, UniProt P31947 1-231, 75EEK77 → 75AAA77); assay: crystal structure; pCH2 (mono-directional peptide swap), 0.1 M bis-Tris pH 6.5, 2 M (NH4)2SO4, 20 °C, 3.2 Å, PDB 5OM0; details: both partners purified
T1 construct: three extra residues left at the N terminus after 3C cleavage of the hexahistidine tag; 14-3-3σ, human, C-terminally truncated (14-3-3σ∆C, residues 1-231), surface-entropy reduction mutant Clu3; Stood in the structures joined on one chain with the peptides (m1-m3); written as a molecule of its own for the pairs core/peptide; also called 14-3-3σ Clu3; 14-3-3σ∆C-Clu3; source: E. coli, as the …
T1 sequence: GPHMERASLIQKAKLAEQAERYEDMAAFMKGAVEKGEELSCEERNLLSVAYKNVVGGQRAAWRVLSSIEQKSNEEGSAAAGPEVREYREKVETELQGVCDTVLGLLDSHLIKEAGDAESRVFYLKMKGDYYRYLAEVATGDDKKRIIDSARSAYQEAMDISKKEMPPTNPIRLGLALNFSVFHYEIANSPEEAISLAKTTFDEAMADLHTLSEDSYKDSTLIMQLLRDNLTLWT

[2] = molecular target: the molecule itself; assay: SEC; analytical SEC, calibrated Superdex 200 Increase 10/300, 20 mM Tris-HCl pH 7.6, 150 mM NaCl, 0.1 mM EDTA, 3 mM β-mercaptoethanol, 1.2 mL/min; samples pre-incubated 30 min at room temperature; hydrodynamic radii from column calibration
[3] = molecular target: the molecule itself; assay: crystal structure; pCH2 (mono-directional peptide swap), 0.1 M bis-Tris pH 6.5, 2 M (NH4)2SO4, 20 °C, 3.2 Å, PDB 5OM0
[4] = molecular target: the molecule itself; assay: crystal structure; pCH3 (bi-directional peptide swap), 0.1 M bis-Tris-propane pH 6.5, 0.2 M (NH4)2SO4, 25% PEG 3350, 20 °C, 3.9 Å, PDB 5OMA
[5] = molecular target: T1, 14-3-3σ∆C mutant Clu3 (core of the …); assay: as above; details: both partners purified

B1: Gli phosphopeptide (RRApS640DPAQA), as fused in pCH2 (peptide)
peptide: RRA[pS]DPAQA
notes: Gli peptide RRAS640DPAQA, said to be conserved in Gli1, Gli2 and Gli3; Tethered through GSGSL to Thr231 of 14-3-3σ Clu3; also called Gli1 phosphopeptide; Gli-derived phosphopeptide; source: E. coli, as the C-terminal part of chimera pCH2, phosphorylated by co-expressed PKA
[1]
  binding result: binds

B2: 14-3-3σ Clu3 – HSPB6 phosphopeptide chimera, phosphorylated (pCH1) (other)
chain: GPHMERASLIQKAKLAEQAERYEDMAAFMKGAVEKGEELSCEERNLLSVAYKNVVGGQRAAWRVLSSIEQKSNEEGSAAAGPEVREYREKVETELQGVCDTVLGLLDSHLIKEAGDAESRVFYLKMKGDYYRYLAEVATGDDKKRIIDSARSAYQEAMDISKKEMPPTNPIRLGLALNFSVFHYEIANSPEEAISLAKTTFDEAMADLHTLSEDSYKDSTLIMQLLRDNLTLWTGSGSLRRASAPL
modifications: phosphoserine at Ser16 of the HSPB6 peptide (RRApS16APL)
notes: three extra residues left at the N terminus after 3C cleavage of the hexahistidine tag; 14-3-3σ, human, C-terminally truncated (14-3-3σ∆C, residues 1-231), surface-entropy reduction mutant Clu3; flexible linker; HSPB6 peptide RRAS16APL with the natural Leu that precedes it (the Leu is told in words; Dimer through the 14-3-3σ core; also called CH1 co-expressed with PKA; 14-3-3/HSPB6 chimera CH1; …)
[2]
  stoichiometry N: 2 and 4

B3: 14-3-3σ Clu3 – Gli1 phosphopeptide chimera, phosphorylated (pCH2) (other)
chain: GPHMERASLIQKAKLAEQAERYEDMAAFMKGAVEKGEELSCEERNLLSVAYKNVVGGQRAAWRVLSSIEQKSNEEGSAAAGPEVREYREKVETELQGVCDTVLGLLDSHLIKEAGDAESRVFYLKMKGDYYRYLAEVATGDDKKRIIDSARSAYQEAMDISKKEMPPTNPIRLGLALNFSVFHYEIANSPEEAISLAKTTFDEAMADLHTLSEDSYKDSTLIMQLLRDNLTLWTGSGSLRRASDPAQA
modifications: phosphoserine at Ser640 of the Gli peptide
notes: three extra residues left at the N terminus after 3C cleavage of the hexahistidine tag; 14-3-3σ, human, C-terminally truncated (14-3-3σ∆C, residues 1-231), surface-entropy reduction mutant Clu3; Gli peptide RRAS640DPAQA, said to be conserved in Gli1, Gli2 and Gli3; the other grooves hold sulfate; also called 14-3-3σ fusion with Gli phosphopeptide; source: E. coli, co-expressed with His-tagged …
[3]
  binding result: binds

B4: 14-3-3σ Clu3 – StARD1 phosphopeptide chimera, phosphorylated (pCH3) (other)
chain: GPHMERASLIQKAKLAEQAERYEDMAAFMKGAVEKGEELSCEERNLLSVAYKNVVGGQRAAWRVLSSIEQKSNEEGSAAAGPEVREYREKVETELQGVCDTVLGLLDSHLIKEAGDAESRVFYLKMKGDYYRYLAEVATGDDKKRIIDSARSAYQEAMDISKKEMPPTNPIRLGLALNFSVFHYEIANSPEEAISLAKTTFDEAMADLHTLSEDSYKDSTLIMQLLRDNLTLWTGSGSLRRSSLLGSR
modifications: phosphoserine at the second Ser of the GSGS linker (-GSGpS-); phosphorylation status of the target and neighbouring serines (RRSSLLGSR) not known
notes: three extra residues left at the N terminus after 3C cleavage of the hexahistidine tag; 14-3-3σ, human, C-terminally truncated (14-3-3σ∆C, residues 1-231), surface-entropy reduction mutant Clu3; StARD1 peptide around Ser57 (RRSS57LLGS); also called 14-3-3σ fusion with StARD1/BimEL phosphopeptide; source: E. coli, co-expressed with His-tagged catalytic subunit of mouse PKA, purified (subtractive …)
[4]
  binding result: binds

B5: phosphorylated linker GSGpSLRR of pCH3 (peptide)
peptide: GSG[pS]LRR
notes: GSGS linker, the Leu kept from CH1 and the first two Arg of the StARD1 peptide; the stretch that was traced in the groove; also called cross-patching peptide of pCH3; source: E. coli, as part of the C-terminal tail of chimera pCH3, phosphorylated by co-expressed PKA
[5]
  binding result: binds
